Assay [1] has as its target T1, human IFNAR-1 protein (form not stated) (human, UniProt P17181 28-436, limits assumed).
T1 construct: bispecific ELISA
T1 sequence (looked up): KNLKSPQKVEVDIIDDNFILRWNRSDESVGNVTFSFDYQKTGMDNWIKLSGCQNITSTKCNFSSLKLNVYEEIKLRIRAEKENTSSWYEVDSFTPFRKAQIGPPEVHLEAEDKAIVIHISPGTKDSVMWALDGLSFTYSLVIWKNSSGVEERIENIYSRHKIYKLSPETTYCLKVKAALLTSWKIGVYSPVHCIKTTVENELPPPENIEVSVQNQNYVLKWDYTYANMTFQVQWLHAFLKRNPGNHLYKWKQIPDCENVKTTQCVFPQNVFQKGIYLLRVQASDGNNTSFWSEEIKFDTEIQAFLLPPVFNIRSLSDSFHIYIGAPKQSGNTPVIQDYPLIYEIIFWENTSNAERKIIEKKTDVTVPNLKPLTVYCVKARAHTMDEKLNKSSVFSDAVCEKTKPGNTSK
The assay is described as follows: affinity measurement of purified IgG at different concentrations (method not named).

The target of assay [2] is T1, human IFNAR-1 protein (form not stated). The assay is described as follows: affinity ranking of expressed humanized 8G11 IgGs (method not named).
Assay [3] concerns the target T2, recombinant His-tagged human IFNAR-1-ECD protein (human, UniProt P17181 28-436).
T2 construct: extracellular domain; the Biacore text says His-tagged human IFNAR-1-ECD; also called His-tagged IFNAR-1; hIFNAR-1 protein; not shown: His tag
T2 sequence (looked up): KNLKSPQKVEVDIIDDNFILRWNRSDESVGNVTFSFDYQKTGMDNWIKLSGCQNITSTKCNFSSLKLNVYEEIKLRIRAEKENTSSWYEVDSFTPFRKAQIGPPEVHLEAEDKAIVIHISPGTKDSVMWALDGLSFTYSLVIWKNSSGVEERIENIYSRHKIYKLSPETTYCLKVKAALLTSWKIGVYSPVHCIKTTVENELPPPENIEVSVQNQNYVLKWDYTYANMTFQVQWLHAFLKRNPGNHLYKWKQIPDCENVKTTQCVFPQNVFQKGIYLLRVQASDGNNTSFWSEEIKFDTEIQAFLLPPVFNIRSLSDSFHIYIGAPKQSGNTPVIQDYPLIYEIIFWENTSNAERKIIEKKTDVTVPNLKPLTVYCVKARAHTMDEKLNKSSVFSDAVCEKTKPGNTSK
The assay is described as follows: ELISA, coated His-tagged IFNAR-1. Here is the method: This example tested the binding properties of the anti-IFNAR-1 mouse antibodies to the human IFNAR-1 proteins by ELISA assay. In short, His-tagged IFNAR-1 was coated at 0.5 μg/ml overnight and then blocked by 5% BSA in PBS. Serial diluted anti-IFNAR-1 antibodies were incubated with the coated antigen for 1 h at room temperature. The resulting plates were washed with PBS/T and incubated with goat anti-mouse IgG-HRP for 1 h at room temperature. The plates were developed with TMB substrate and analyzed by spectrophotometer at OD 450-630 nm.
Background: In an ELISA, binding on a coated surface is turned into a signal by an enzyme label.

In assay [4] the target is T3, human IFNAR-1 on cells (human, UniProt P17181 28-557).
T3 sequence (looked up): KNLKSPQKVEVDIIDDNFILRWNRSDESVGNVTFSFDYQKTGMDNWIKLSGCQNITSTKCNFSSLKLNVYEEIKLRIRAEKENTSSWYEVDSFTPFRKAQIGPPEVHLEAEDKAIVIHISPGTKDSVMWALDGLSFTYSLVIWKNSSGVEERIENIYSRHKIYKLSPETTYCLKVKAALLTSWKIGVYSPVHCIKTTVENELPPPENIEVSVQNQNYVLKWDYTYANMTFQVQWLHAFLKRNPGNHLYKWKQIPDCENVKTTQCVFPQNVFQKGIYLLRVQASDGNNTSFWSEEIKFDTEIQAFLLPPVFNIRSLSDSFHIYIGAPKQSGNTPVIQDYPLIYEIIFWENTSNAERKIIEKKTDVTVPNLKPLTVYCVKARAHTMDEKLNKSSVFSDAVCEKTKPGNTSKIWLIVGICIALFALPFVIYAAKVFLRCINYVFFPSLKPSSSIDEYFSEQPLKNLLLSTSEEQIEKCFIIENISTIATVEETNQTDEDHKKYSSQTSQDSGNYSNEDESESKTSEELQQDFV
The assay is described as follows: cell-based or functional assay.

For assay [5], the target named is T2, recombinant His-tagged human …. The assay is described as follows: SPR (Biacore T200), antibody captured, His-tagged IFNAR-1-ECD as analyte. Here is the method: The binding of the antibodies to recombinant His-tagged human IFNAR-1-ECD protein was examined by Biacore T200 using a capture method. The anti-IFNAR-1 antibodies were captured using anti-human Fc antibody or Protein A which were coated on chip. The serial concentrations of his-tagged human IFNAR-1-ECD protein (0-8 nM) were injected over capture antibodies at the flow rate of 30 μl/min. The dissociation phases were 600 s or 1200 s.

Assay [6] addresses T3, human IFNAR-1 on cells. The assay is described as follows: cell-based or functional assay. The source holds these as a separate data set.

B1: 8G11-H2L1 (antibody, V domains shown)
VH: QVQLVQSGAEVVKPGASVKVSCKGSGFNIKDYYMHWVRQAPGQGLEWIGRIDPEDAETKYAPKFQGRVTMTADTSTSTVYMELSSLRSEDTAVYYCARGGNFYVMDYWGQGTLVTVSS
VL: DIQLTQSPSFLSASVGDRVTITCKASQNVGTNVVWYQQKPGKAPKLLIYSASYRVSGVPSRFSGSGSGTEFTLTISSLQPEDFATYYCQQKNNYPYTFGQGTKLEIK
notes: Humanized IgG expressed in HEK293; also called VH2 + VL1 (8G11)
In the case of B1, in assay [1], the dissociation constant (Kd) stood at 0.403 nM, the koff was found to be 9.24e-05 s⁻¹ and the kon turned out to be 229000 M⁻¹ s⁻¹. In addition, in assay [2], the equilibrium dissociation constant (Kd) is 0.439 nM, the koff worked out at 8.84e-05 s⁻¹ and the kon was 202000 M⁻¹ s⁻¹.

B2: 8G11-H1L1 (antibody, V domains shown)
VH: QVQLVQSGAEVKKPGASVKVSCKASGFNIKDYYMHWVRQAPGQGLEWMGRIDPEDAETKYAPKFQGRVTMTRDTSTSTVYMELSSLRSEDTAVYYCARGGNFYVMDYWGQGTLVTVSS
VL: DIQLTQSPSFLSASVGDRVTITCKASQNVGTNVVWYQQKPGKAPKLLIYSASYRVSGVPSRFSGSGSGTEFTLTISSLQPEDFATYYCQQKNNYPYTFGQGTKLEIK
notes: Humanized IgG expressed in HEK293; also called VH1 + VL1 (8G11)
As to B2, in assay [1], the Kd came out at 1.36 nM, the off-rate constant (koff) was 0.000219 s⁻¹ and the on-rate constant (kon) was found to be 161000 M⁻¹ s⁻¹. In assay [2], the Kd is 0.662 nM, the off-rate (koff) stood at 9.83e-05 s⁻¹ and the kon was determined as 148000 M⁻¹ s⁻¹.

B3: 8G11-H4L3 (antibody, V domains shown)
VH: QVQLVQSGAEVVKPGASVKLSCKGSGFNIKDYYMHWVKQAPGQGLEWIGRIDPEDAETKYAPKFQGRATITADTSTSTAYLELSSLRSEDTAVYYCARGGNFYVMDYWGQGTLVTVSS
VL: DIQLTQSPSFLSTSVGDRVTITCKASQNVGTNVVWYQQKPGKSPKVLIYSASYRVSGVPSRFSGSGSGTEFTLIISSVQPEDFATYFCQQKNNYPYTFGQGTKLEIK
notes: Humanized IgG expressed in HEK293; also called VH4 + VL3 (8G11)
Consider B3, for which, in assay [1], the dissociation constant (Kd) was 0.22 nM, the koff turned out to be 7.47e-05 s⁻¹ and the kon turned out to be 340000 M⁻¹ s⁻¹. In assay [2], the Kd came to 0.284 nM, the koff was determined as 8.52e-05 s⁻¹ and the on-rate (kon) came out at 301000 M⁻¹ s⁻¹.

B4: 8G11-H2L2 (antibody, V domains shown)
VH: QVQLVQSGAEVVKPGASVKVSCKGSGFNIKDYYMHWVRQAPGQGLEWIGRIDPEDAETKYAPKFQGRVTMTADTSTSTVYMELSSLRSEDTAVYYCARGGNFYVMDYWGQGTLVTVSS
VL: DIQLTQSPSFLSTSVGDRVTITCKASQNVGTNVVWYQQKPGKSPKVLIYSASYRVSGVPSRFSGSGSGTEFTLIISSLQPEDFATYYCQQKNNYPYTFGQGTKLEIK
notes: Humanized IgG expressed in HEK293; also called VH2 + VL2 (8G11)
In assay [1], B4 showed a Kd of 0.419 nM, a koff of 0.000125 s⁻¹ and a kon of 298000 M⁻¹ s⁻¹. In addition, in assay [2], the Kd was 0.328 nM, the off-rate (koff) was 9.42e-05 s⁻¹ and the on-rate (kon) worked out at 287000 M⁻¹ s⁻¹.

B5: 4D8 (antibody, V domains shown)
VH: EVRLQQSGAELVQPGASVKLSCTGFGFNIKDYYMHWVKQRTEQGLEWIGRIDPEDAETKYAPKFQGQATITADTSSNTAYVQVSSLSSEDTAVYYCARGGNFYVMDYWGQGTSVTVSS
VL: DIVMTQSQKFMSTSVGDRVSVTCKASQNVGTNVVWYQQKPGQSPKVLIYSASYRYSGVPDRFTGSGSGTDFTLIISNVQSEDLAEYFCQQKNSYPYTFGGGTKLEIK
notes: Hybridoma-derived monoclonal antibody; Chimeric human IgG1 Fc versions were also made
As to B5, in assay [3], the EC50 turned out to be 0.067 nM. Further, the “EC50 (nM), inhibition of IFNα2b-induced SEAP reporter in HEK-Blue IFNα/β cells” value (“EC50 (nM), inhibition” below) with human IFNAR-1 on cells [4] turned out to be 0.46 nM. In addition, in assay [5], the Kd was 0.039 nM, the koff was 9.03e-05 s⁻¹ and the kon was found to be 2.31e+06 M⁻¹ s⁻¹.

B6: 34H8 (antibody, V domains shown)
VH: EVQLLQSGAELVKPGASVRLSCTASGFNIKDYYLHWVKQRTEQGLEWIGRIDPEDGETKYAPKFQGKATITTDTSSNTAYLQLSSLTSEDTAVYYCTRGGNYDVMDYWGQGTSVTVSS
VL: DIVMTQSQKFMSTSVGDRVSVTCKASQNVGTYVVWYQQKPGQSPKALIYSASYRYSGVPDRFTGSGSGTDFTLTIGNVQSEDLAEYFCQQKNTYPFTFGGGTKLEIE
notes: Hybridoma-derived monoclonal antibody
Turning to B6, the concentration for a half-maximal effect (EC50) in assay [3] was determined as 0.064 nM. Moreover, the “EC50 (nM), inhibition” value with human IFNAR-1 on cells [4] is 0.56 nM. Besides, in assay [5], the Kd worked out at 0.0186 nM, the off-rate constant (koff) stood at 4.41e-05 s⁻¹ and the kon came to 2.37e+06 M⁻¹ s⁻¹.

B7: 485G10 chimeric antibody (antibody, V domains shown)
VH: EVQLQQSGAELVKPGASVKLSCTGSGFNIKDYYIHWVKQRTEQGLEWIGRIDPEDGETKYAPKFQGKATITADTSSNTAYLQLSSLTSEDTVVYYCGRYHGYWALDYWGQGTSVTVSS
VL: DIVMTQSQKFMSTSVGDRVSVTCKTSQNVGTNVAWYQQKPGQSPKPLIYSTSYRYSGVPDRFTGSGSGTDFTLIISNVQSEDLAEYFCHQYFSYPYTFGGGTLLEIK
On to B7, for which the “EC50 (nM), IFNα2b-mediated anti-viral assay (Huh7-Con1b HCV replicon luciferase)” value with human IFNAR-1 on cells [6] was 16.3 nM.

B8: 8G11 (antibody, V domains shown)
VH: EVQLQQSGAELVKPGASVKLSCTGFGFNIKDYYMHWVKQRAEQGLEWIGRIDPEDGETKYAPKFQGKATITADTSSNTAYLQVSSLTSEDTAVYYCARGGNFYVMDYWGQGTSVTVSS
VL: DIVMTQSQKFMSTSVGDRVSVTCKASQNVGTNVVWYQQKPGQSPKVLIYSASYRVSGVPDRFTGSGSGTDFTLIISNVQSEDLAEYFCQQKNNYPYTFGGGTKLEIK
notes: Hybridoma-derived monoclonal antibody; also called mouse antibody 8G11
Regarding B8, the half-maximal effective concentration (EC50) in assay [3] turned out to be 0.069 nM. The “EC50 (nM), inhibition” value in the assay with human IFNAR-1 on cells [4] is 0.465 nM. Further, in assay [5], the Kd is 0.0271 nM, the off-rate constant (koff) is 6.4e-05 s⁻¹ and the on-rate (kon) amounted to 2.36e+06 M⁻¹ s⁻¹.

In general, Kd refers to the free concentration of one partner at which half of the binding sites on the other are occupied at equilibrium, for simple one-to-one binding. The koff is the first-order rate constant of dissociation. The term kon denotes the second-order rate constant of association. As usually defined, the EC50 is the midpoint of the concentration-response curve.

Source of the values: patent US20200399381A1 (I MAB BIOPHARMA US, published 2020).
